Patent publication US20200024330A1

How the values were obtained:
Experiment in all cases: cell-based or functional assay
[1] = target: HIV-1 Env of isolate MGRM-F1-020 (HIV-1)
[2] = target: HIV-1 Env of isolate MGRM-F1-010 (HIV-1)
[3] = target: HIV-1 Env of isolate 98IN022 (HIV-1)
[4] = target: HIV-1 Env of isolate SF162 (HIV-1) (UniProt P19550)
[5] = target: HIV-1 Env of isolate MGRM-Chronic-B-020 (HIV-1)
[6] = target: HIV-1 Env of isolate PVO.4 (HIV-1)
[7] = target: HIV-1 Env of isolate MGRM-D-012 (HIV-1)
[8] = target: HIV-1 Env of isolate MGRM-D-020 (HIV-1)
[9] = target: HIV-1 Env of isolate MGRM-F1-014 (HIV-1)
[10] = target: HIV-1 Env of isolate QH0692.42 (HIV-1)
[11] = target: HIV-1 Env of isolate MGRM-F1-021 (HIV-1)
[12] = target: HIV-1 Env of isolate MGRM-Chronic-B-011 (HIV-1)
[13] = target: HIV-1 Env of isolate JRCSF (HIV-1) (UniProt P20871)
[14] = target: HIV-1 Env of isolate MGRM-F1-016 (HIV-1)
[15] = target: HIV-1 Env of isolate VLGCB3 (HIV-1)
[16] = target: HIV-1 Env of isolate MGRM-F1-022 (HIV-1)
[17] = target: HIV-1 Env of isolate MGRM-Chronic-B-010 (HIV-1)
[18] = target: HIV-1 Env of isolate MGRM-D-029 (HIV-1)
[19] = target: HIV-1 Env of isolate MGRM-F1-013 (HIV-1)
[20] = target: HIV-1 Env of isolate MGRM-Chronic-B-023 (HIV-1)
[21] = target: HIV-1 Env of isolate 97ZA012 (HIV-1)
[22] = target: HIV-1 Env of isolate THR0.18 (HIV-1)
[23] = target: HIV-1 Env of isolate 93MW959 (HIV-1)
[24] = target: HIV-1 Env of isolate MGRM-F1-008 (HIV-1)
[25] = target: HIV-1 Env of isolate MGRM-D-019 (HIV-1)
[26] = target: HIV-1 Env of isolate MGRM-Chronic-B-024 (HIV-1)
[27] = target: HIV-1 Env of isolate NL43 (HIV-1)
[28] = target: HIV-1 Env of isolate MGRM-D-018 (HIV-1)
[29] = target: HIV-1 Env of isolate MGRM-D-014 (HIV-1)
[30] = target: HIV-1 Env of isolate MGRM-D-021 (HIV-1)
[31] = target: HIV-1 Env of isolate MGRM-D-013 (HIV-1)
[32] = target: HIV-1 Env of isolate MGRM-F1-004 (HIV-1)
[33] = target: HIV-1 Env of isolate 93IN905 (HIV-1)
[34] = target: HIV-1 Env of isolate MGRM-Chronic-B-012 (HIV-1)
[35] = target: HIV-1 Env of isolate MGRM-F1-006 (HIV-1)
[36] = target: HIV-1 Env of isolate MGRM-Chronic-B-017 (HIV-1)
[37] = target: HIV-1 Env of isolate TRJ04551.58 (HIV-1)
[38] = target: HIV-1 Env of isolate MGRM-D-028 (HIV-1)
[39] = target: HIV-1 Env of isolate MGRM-D-011 (HIV-1)
[40] = target: HIV-1 Env of isolate TRO.11 (HIV-1)
[41] = target: HIV-1 Env of isolate MGRM-F1-017 (HIV-1)
[42] = target: HIV-1 Env of isolate SC422661.8 (HIV-1)
[43] = target: HIV-1 Env of isolate MGRM-F1-012 (HIV-1)
[44] = target: HIV-1 Env of isolate MGRM-Chronic-B-018 (HIV-1)
[45] = target: HIV-1 Env of isolate MGRM-F1-015 (HIV-1)
[46] = target: HIV-1 Env of isolate MGRM-D-016 (HIV-1)
[47] = target: HIV-1 Env of isolate MGRM-F1-018 (HIV-1)
[48] = target: HIV-1 Env of isolate MGRM-D-022 (HIV-1)
[49] = target: HIV-1 Env of isolate MGRM-D-024 (HIV-1)
[50] = target: HIV-1 Env of isolate MGRM-D-026 (HIV-1)
[51] = target: HIV-1 Env of isolate MGRM-F1-023 (HIV-1)

Sequence of PGT-144 (antibody) (VH): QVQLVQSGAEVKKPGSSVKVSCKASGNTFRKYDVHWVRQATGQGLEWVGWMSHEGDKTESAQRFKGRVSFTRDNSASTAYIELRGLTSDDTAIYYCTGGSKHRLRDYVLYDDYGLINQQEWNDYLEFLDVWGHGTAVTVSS
Sequence of PGT-144 (antibody) (VL): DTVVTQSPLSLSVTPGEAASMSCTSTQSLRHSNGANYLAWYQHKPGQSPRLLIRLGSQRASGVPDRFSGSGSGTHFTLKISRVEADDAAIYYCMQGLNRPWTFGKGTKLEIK
Sequence of PGT-145 (antibody) (VH): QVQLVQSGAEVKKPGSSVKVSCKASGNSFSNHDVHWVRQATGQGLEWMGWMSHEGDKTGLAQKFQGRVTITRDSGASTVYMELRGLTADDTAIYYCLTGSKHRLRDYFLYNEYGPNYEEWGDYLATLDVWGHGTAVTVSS
Sequence of PGT-145 (antibody) (VL): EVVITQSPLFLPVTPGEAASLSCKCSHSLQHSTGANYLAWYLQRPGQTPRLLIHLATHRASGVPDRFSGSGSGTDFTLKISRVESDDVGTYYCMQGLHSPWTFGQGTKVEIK
Sequence of PGT-143 (antibody) (VH): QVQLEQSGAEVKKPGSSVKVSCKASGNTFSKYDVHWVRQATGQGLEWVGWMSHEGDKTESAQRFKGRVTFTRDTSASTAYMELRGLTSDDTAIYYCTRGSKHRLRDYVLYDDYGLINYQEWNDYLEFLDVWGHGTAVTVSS
Sequence of PGT-143 (antibody) (VL): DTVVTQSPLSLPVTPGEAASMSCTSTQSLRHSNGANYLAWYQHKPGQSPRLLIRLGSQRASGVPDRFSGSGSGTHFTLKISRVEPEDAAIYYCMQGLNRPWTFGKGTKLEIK

## PGT-144 (antibody)
[1]
  IC50, pseudovirus neutralization: 8.93 µg/mL
[2]
  IC50, pseudovirus neutralization: > 50 µg/mL
[3]
  neutralization IC50: 171 ng/mL
[4]
  neutralization IC50: > 50 µg/mL
[5]
  neutralization IC50: > 50 µg/mL
[6]
  neutralization IC50: 0.535 µg/mL
[7]
  IC50, pseudovirus neutralization: > 50 µg/mL
[8]
  IC50, pseudovirus neutralization: > 50 µg/mL
[9]
  IC50, pseudovirus neutralization: 14 ng/mL
[10]
  neutralization IC50: > 50 µg/mL
[11]
  IC50, pseudovirus neutralization: > 50 µg/mL
[12]
  neutralization IC50: 5.64 µg/mL
[13]
  neutralization IC50: 149 ng/mL
[14]
  IC50, pseudovirus neutralization: > 50 µg/mL
[15]
  neutralization IC50: > 50 µg/mL
[16]
  IC50, pseudovirus neutralization: 0.382 µg/mL
[17]
  neutralization IC50: > 50 µg/mL
[18]
  IC50, pseudovirus neutralization: 0.459 µg/mL
[19]
  IC50, pseudovirus neutralization: 0.509 µg/mL
[20]
  neutralization IC50: > 50 µg/mL
[21]
  neutralization IC50: > 50 µg/mL
[22]
  neutralization IC50: 0.029 µg/mL
[23]
  neutralization IC50: 0.332 µg/mL
[24]
  IC50, pseudovirus neutralization: 0.507 µg/mL
[25]
  IC50, pseudovirus neutralization: > 50 µg/mL
[26]
  neutralization IC50: 0.04 µg/mL
[27]
  neutralization IC50: > 50 µg/mL
[28]
  IC50, pseudovirus neutralization: > 50 µg/mL
[29]
  IC50, pseudovirus neutralization: 0.113 µg/mL
[30]
  IC50, pseudovirus neutralization: > 50 µg/mL
[31]
  IC50, pseudovirus neutralization: > 50 µg/mL
[32]
  IC50, pseudovirus neutralization: 0.105 µg/mL
[33]
  neutralization IC50: 132 ng/mL
[34]
  neutralization IC50: > 50 µg/mL
[35]
  IC50, pseudovirus neutralization: 20.6 µg/mL
[36]
  neutralization IC50: 0.712 µg/mL
[37]
  neutralization IC50: > 50 µg/mL
[38]
  IC50, pseudovirus neutralization: > 50 µg/mL
[39]
  IC50, pseudovirus neutralization: > 50 µg/mL
[40]
  neutralization IC50: 4.73 µg/mL
[41]
  IC50, pseudovirus neutralization: > 50 µg/mL
[42]
  neutralization IC50: > 50 µg/mL
[43]
  IC50, pseudovirus neutralization: > 50 µg/mL
[44]
  neutralization IC50: 2.4 µg/mL
[45]
  IC50, pseudovirus neutralization: > 50 µg/mL
[46]
  IC50, pseudovirus neutralization: > 50 µg/mL
[47]
  IC50, pseudovirus neutralization: > 50 µg/mL
[48]
  IC50, pseudovirus neutralization: > 50 µg/mL
[49]
  IC50, pseudovirus neutralization: > 50 µg/mL
[50]
  IC50, pseudovirus neutralization: > 50 µg/mL
[51]
  IC50, pseudovirus neutralization: 1.16 µg/mL

## PGT-145 (antibody)
[1]
  IC50, pseudovirus neutralization: 0.816 µg/mL
[2]
  IC50, pseudovirus neutralization: 3.32 µg/mL
[3]
  neutralization IC50: 5 ng/mL
[4]
  neutralization IC50: > 50 µg/mL
[5]
  neutralization IC50: > 50 µg/mL
[6]
  neutralization IC50: 0.299 µg/mL
[7]
  IC50, pseudovirus neutralization: > 50 µg/mL
[8]
  IC50, pseudovirus neutralization: 10 µg/mL
[9]
  IC50, pseudovirus neutralization: 9 ng/mL
[10]
  neutralization IC50: > 50 µg/mL
[11]
  IC50, pseudovirus neutralization: 8.04 µg/mL
[12]
  neutralization IC50: 0.206 µg/mL
[13]
  neutralization IC50: 2 ng/mL
[14]
  IC50, pseudovirus neutralization: 17.5 µg/mL
[15]
  neutralization IC50: > 50 µg/mL
[16]
  IC50, pseudovirus neutralization: 0.009 µg/mL
[17]
  neutralization IC50: > 50 µg/mL
[18]
  IC50, pseudovirus neutralization: 0.03 µg/mL
[19]
  IC50, pseudovirus neutralization: 0.402 µg/mL
[20]
  neutralization IC50: 0.009 µg/mL
[21]
  neutralization IC50: 0.915 µg/mL
[22]
  neutralization IC50: 0.013 µg/mL
[23]
  neutralization IC50: 1.2 µg/mL
[24]
  IC50, pseudovirus neutralization: 0.228 µg/mL
[25]
  IC50, pseudovirus neutralization: 0.111 µg/mL
[26]
  neutralization IC50: 0.018 µg/mL
[27]
  neutralization IC50: 0.006 µg/mL
[28]
  IC50, pseudovirus neutralization: 0.065 µg/mL
[29]
  IC50, pseudovirus neutralization: 2.51 µg/mL
[30]
  IC50, pseudovirus neutralization: > 50 µg/mL
[31]
  IC50, pseudovirus neutralization: 3.48 µg/mL
[32]
  IC50, pseudovirus neutralization: 0.361 µg/mL
[33]
  neutralization IC50: 2 ng/mL
[34]
  neutralization IC50: 9.66 µg/mL
[35]
  IC50, pseudovirus neutralization: 13.6 µg/mL
[36]
  neutralization IC50: 0.054 µg/mL
[37]
  neutralization IC50: > 50 µg/mL
[38]
  IC50, pseudovirus neutralization: 0.721 µg/mL
[39]
  IC50, pseudovirus neutralization: 14.7 µg/mL
[40]
  neutralization IC50: 0.044 µg/mL
[41]
  IC50, pseudovirus neutralization: 0.286 µg/mL
[42]
  neutralization IC50: 0.079 µg/mL
[43]
  IC50, pseudovirus neutralization: 0.113 µg/mL
[44]
  neutralization IC50: 0.013 µg/mL
[45]
  IC50, pseudovirus neutralization: 1.76 µg/mL
[46]
  IC50, pseudovirus neutralization: > 50 µg/mL
[47]
  IC50, pseudovirus neutralization: 1.02 µg/mL
[48]
  IC50, pseudovirus neutralization: 34.3 µg/mL
[49]
  IC50, pseudovirus neutralization: 0.224 µg/mL
[50]
  IC50, pseudovirus neutralization: 0.41 µg/mL
[51]
  IC50, pseudovirus neutralization: 5.88 µg/mL

## PGT-143 (antibody)
[1]
  IC50, pseudovirus neutralization: 0.98 µg/mL
[2]
  IC50, pseudovirus neutralization: > 50 µg/mL
[3]
  neutralization IC50: 1 ng/mL
[4]
  neutralization IC50: > 50 µg/mL
[5]
  neutralization IC50: > 50 µg/mL
[6]
  neutralization IC50: 0.162 µg/mL
[7]
  IC50, pseudovirus neutralization: > 50 µg/mL
[8]
  IC50, pseudovirus neutralization: > 50 µg/mL
[9]
  IC50, pseudovirus neutralization: 1 ng/mL
[10]
  neutralization IC50: > 50 µg/mL
[11]
  IC50, pseudovirus neutralization: > 50 µg/mL
[12]
  neutralization IC50: 1.56 µg/mL
[13]
  neutralization IC50: 7 ng/mL
[14]
  IC50, pseudovirus neutralization: > 50 µg/mL
[15]
  neutralization IC50: > 50 µg/mL
[16]
  IC50, pseudovirus neutralization: 0.082 µg/mL
[17]
  neutralization IC50: > 50 µg/mL
[18]
  IC50, pseudovirus neutralization: 0.2 µg/mL
[19]
  IC50, pseudovirus neutralization: 0.013 µg/mL
[20]
  neutralization IC50: 0.236 µg/mL
[21]
  neutralization IC50: > 50 µg/mL
[22]
  neutralization IC50: 0.016 µg/mL
[23]
  neutralization IC50: 0.002 µg/mL
[24]
  IC50, pseudovirus neutralization: 0.189 µg/mL
[25]
  IC50, pseudovirus neutralization: 0.277 µg/mL
[26]
  neutralization IC50: 0.01 µg/mL
[27]
  neutralization IC50: > 50 µg/mL
[28]
  IC50, pseudovirus neutralization: > 50 µg/mL
[29]
  IC50, pseudovirus neutralization: 0.009 µg/mL
[30]
  IC50, pseudovirus neutralization: > 50 µg/mL
[31]
  IC50, pseudovirus neutralization: 0.386 µg/mL
[32]
  IC50, pseudovirus neutralization: 0.036 µg/mL
[33]
  neutralization IC50: 2 ng/mL
[34]
  neutralization IC50: > 50 µg/mL
[35]
  IC50, pseudovirus neutralization: 12.3 µg/mL
[36]
  neutralization IC50: 0.145 µg/mL
[37]
  neutralization IC50: > 50 µg/mL
[38]
  IC50, pseudovirus neutralization: > 50 µg/mL
[39]
  IC50, pseudovirus neutralization: > 50 µg/mL
[40]
  neutralization IC50: 0.219 µg/mL
[41]
  IC50, pseudovirus neutralization: 26.3 µg/mL
[42]
  neutralization IC50: 2.02 µg/mL
[43]
  IC50, pseudovirus neutralization: > 50 µg/mL
[44]
  neutralization IC50: 0.377 µg/mL
[45]
  IC50, pseudovirus neutralization: > 50 µg/mL
[46]
  IC50, pseudovirus neutralization: > 50 µg/mL
[47]
  IC50, pseudovirus neutralization: 0.701 µg/mL
[48]
  IC50, pseudovirus neutralization: > 50 µg/mL
[49]
  IC50, pseudovirus neutralization: > 50 µg/mL
[50]
  IC50, pseudovirus neutralization: 44.6 µg/mL
[51]
  IC50, pseudovirus neutralization: 0.972 µg/mL
